Data as given in US20240109954A1 (GENERAL HOSPITAL, published 2024).

Experiments:
[1] = target: T1, mouse FcγRI (mouse, UniProt P26151 25-297); assay: BLI, mAb on anti-human Fab-CH1 sensor; ND = not detected
T1 construct: also called mFcγRI
T1 sequence: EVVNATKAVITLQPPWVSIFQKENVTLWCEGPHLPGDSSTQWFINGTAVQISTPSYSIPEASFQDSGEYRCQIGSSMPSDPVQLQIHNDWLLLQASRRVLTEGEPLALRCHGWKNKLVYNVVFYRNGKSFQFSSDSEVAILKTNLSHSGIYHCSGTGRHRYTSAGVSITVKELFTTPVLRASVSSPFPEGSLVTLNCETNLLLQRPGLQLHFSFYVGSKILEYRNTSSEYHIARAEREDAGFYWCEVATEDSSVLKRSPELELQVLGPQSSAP

[2] = target: T2, mouse FcγRIV (mouse, UniProt A0A0B4J1G0 21-203); assay: as above
T2 construct: also called mFcγRIV
T2 sequence: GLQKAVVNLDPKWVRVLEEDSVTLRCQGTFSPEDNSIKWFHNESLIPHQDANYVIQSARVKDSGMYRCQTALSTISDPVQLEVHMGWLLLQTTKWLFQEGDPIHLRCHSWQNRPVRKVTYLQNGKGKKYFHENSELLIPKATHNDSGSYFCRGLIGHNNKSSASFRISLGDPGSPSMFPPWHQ

[3] = target: T3, mouse FcγRIIb (mouse, UniProt P08101 30-210); assay: as above
T3 construct: also called mFcγRIIb; mFcγR2b
T3 sequence: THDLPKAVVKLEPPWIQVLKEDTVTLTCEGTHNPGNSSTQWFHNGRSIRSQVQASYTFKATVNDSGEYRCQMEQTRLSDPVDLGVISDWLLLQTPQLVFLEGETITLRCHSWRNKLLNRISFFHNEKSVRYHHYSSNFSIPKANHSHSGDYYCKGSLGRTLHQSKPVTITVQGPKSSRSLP

[4] = target: T4, human FcγR2B (human, UniProt P31994 43-217); assay: SPR, mAb printed on chip, FcγR injected; ND = not detected
T4 construct: also called huFcγR2B
T4 sequence: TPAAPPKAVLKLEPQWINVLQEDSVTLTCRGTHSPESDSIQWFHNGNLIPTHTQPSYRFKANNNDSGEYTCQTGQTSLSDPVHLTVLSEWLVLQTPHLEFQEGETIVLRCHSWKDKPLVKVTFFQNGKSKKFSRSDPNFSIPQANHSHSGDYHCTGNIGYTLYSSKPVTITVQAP

[5] = target: T5, human FcγR3B (human, UniProt O75015 17-200); assay: as above
T5 construct: also called huFcγR3B

[6] = target: T6, human FcγR3A (F158) (human, UniProt P08637 17-208); assay: SPR, mAb printed on chip, FcγR injected; fold-change of KD relative to IgG1, same SPR measurement
T6 construct: also called huFcγR3A

[7] = target: T7, human FcγR2A (R131) (human, UniProt P12318 34-217); assay: as above
T7 construct: also called huFcγR2A
T7 sequence: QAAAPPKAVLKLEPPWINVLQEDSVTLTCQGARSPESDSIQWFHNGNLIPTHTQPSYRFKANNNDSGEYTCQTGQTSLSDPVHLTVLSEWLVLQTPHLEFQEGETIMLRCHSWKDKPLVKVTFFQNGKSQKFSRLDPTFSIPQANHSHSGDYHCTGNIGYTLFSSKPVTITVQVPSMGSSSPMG

[8] = target: T7, human FcγR2A (R131); assay: SPR, mAb printed on chip, FcγR injected; SPR KD of Table 6: measurable but very weak (0.03-fold of IgG1)
[9] = target: T6, human FcγR3A (F158); assay: SPR, mAb printed on chip, FcγR injected; SPR KD of Table 6: measurable but very weak (0.003-fold of IgG1)
[10] = target: T8, mouse FcγRIII (mouse, UniProt P08508 31-215); assay: BLI, mAb on anti-human Fab-CH1 sensor, FcγR in solution; monomeric mAb:receptor affinity of Table 6 (weak binding)
T8 construct: also called mFcγRIII; mFcγR3
T8 sequence: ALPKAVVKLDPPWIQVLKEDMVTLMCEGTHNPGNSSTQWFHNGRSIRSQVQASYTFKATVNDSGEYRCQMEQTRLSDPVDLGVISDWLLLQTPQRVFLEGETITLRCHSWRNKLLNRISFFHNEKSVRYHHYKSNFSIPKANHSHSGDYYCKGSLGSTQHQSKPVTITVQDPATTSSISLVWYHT

[11] = target: T7, human FcγR2A (R131); assay: SPR, mAb printed on chip, FcγR injected
[12] = target: T6, human FcγR3A (F158); assay: SPR, mAb printed on chip, FcγR injected
[13] = target: T7, human FcγR2A (R131); assay: SPR, mAb printed on chip, FcγR injected; remark: listed apart in the source
[14] = target: T4, human FcγR2B; assay: SPR, mAb printed on chip, FcγR injected
[15] = target: T5, human FcγR3B; assay: SPR, mAb printed on chip, FcγR injected
[16] = target: T2, mouse FcγRIV; assay: BLI, mAb on anti-human Fab-CH1 sensor, FcγR in solution
[17] = target: T8, mouse FcγRIII; assay: as above
[18] = target: T3, mouse FcγRIIb; assay: as above
[19] = target: T1, mouse FcγRI; assay: as above
[20] = target: T2, mouse FcγRIV; assay: as above; remark: listed apart in the source
[21] = target: T8, mouse FcγRIII; assay: as above; remark: listed apart in the source
[22] = target: T3, mouse FcγRIIb; assay: as above; remark: listed apart in the source
[23] = target: T9, EBOV GP displayed on vesicular stomatitis virus (VSV) pseudovirions (Ebola virus, UniProt Q05320 33-676); assay: cell-based or functional assay
T9 sequence: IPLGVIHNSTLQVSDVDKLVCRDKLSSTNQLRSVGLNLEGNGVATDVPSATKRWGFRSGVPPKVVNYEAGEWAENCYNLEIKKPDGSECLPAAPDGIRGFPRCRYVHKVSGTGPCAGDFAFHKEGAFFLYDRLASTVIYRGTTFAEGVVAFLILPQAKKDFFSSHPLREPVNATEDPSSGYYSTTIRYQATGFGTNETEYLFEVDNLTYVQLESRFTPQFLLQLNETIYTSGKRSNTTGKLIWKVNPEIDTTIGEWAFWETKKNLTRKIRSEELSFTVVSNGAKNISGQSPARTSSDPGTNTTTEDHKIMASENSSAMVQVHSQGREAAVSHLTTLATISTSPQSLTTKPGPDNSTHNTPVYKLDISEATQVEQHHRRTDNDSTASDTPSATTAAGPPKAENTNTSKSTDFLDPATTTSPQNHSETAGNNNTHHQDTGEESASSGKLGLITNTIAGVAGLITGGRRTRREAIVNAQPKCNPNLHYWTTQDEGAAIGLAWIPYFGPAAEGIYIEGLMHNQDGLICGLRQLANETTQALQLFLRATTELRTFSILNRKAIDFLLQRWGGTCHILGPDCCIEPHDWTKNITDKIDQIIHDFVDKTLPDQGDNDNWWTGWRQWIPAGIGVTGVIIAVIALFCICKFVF

[24] = target: T9, EBOV GP displayed on vesicular …; assay: cell-based or functional assay; remark: listed apart in the source

T5 sequence (O75015 17-200): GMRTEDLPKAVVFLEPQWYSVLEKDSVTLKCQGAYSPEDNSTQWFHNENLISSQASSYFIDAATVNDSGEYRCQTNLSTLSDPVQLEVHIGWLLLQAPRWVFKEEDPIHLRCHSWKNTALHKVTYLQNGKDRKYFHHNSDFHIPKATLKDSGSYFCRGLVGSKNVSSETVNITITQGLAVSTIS
T6 sequence (P08637 17-208): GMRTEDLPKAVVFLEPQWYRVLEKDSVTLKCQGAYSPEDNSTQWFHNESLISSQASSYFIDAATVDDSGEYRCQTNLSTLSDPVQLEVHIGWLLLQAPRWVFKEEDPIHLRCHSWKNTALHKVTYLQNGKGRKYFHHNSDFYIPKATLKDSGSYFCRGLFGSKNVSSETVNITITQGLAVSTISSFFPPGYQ

B1: VIC16-LALA (antibody)
heavy: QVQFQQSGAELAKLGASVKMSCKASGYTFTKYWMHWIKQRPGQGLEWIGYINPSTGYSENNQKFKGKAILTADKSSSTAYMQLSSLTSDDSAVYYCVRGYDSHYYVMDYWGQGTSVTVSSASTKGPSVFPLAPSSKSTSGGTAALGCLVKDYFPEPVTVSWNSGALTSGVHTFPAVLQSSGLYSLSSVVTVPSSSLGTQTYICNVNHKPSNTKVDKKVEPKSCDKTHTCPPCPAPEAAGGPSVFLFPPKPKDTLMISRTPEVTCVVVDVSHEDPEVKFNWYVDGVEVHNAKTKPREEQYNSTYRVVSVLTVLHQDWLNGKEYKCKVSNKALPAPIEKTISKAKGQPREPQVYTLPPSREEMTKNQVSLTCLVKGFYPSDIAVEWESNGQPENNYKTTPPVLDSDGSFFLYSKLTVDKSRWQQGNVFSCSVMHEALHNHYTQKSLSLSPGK
light: DIVITQDTASLAVSRGQRATISCRASESVEYYGTTLMQWYQQRPGQPPKLLIYGASNVESGVPARFSGSGSGTDFSLNIHPVEEDDIAMYFCQQSRKVPYTFGGGTKLEIKRTVAAPSVFIFPPSDEQLKSGTASVVCLLNNFYPREAKVQWKVDNALQSGNSQESVTEQDSKDSTYSLSSTLTLSKADYEKHKVYACEVTHQGLSSPVTKSFNRGEC
binding result [1]: no binding (tested: FcγR from 200 nM)
binding result [2]: no binding (tested: FcγR from 200 nM)
binding result [3]: no binding (tested: FcγR from 600 nM)
binding result [4]: no binding (tested: FcγR 10 µM to 0.005 µM)
binding result [5]: no binding (tested: FcγR 10 µM to 0.005 µM)
fold-change relative to IgG1 [6]: 0.003 fold
fold-change relative to IgG1 [7]: 0.03 fold
Kd [8]: 892 µM
Kd [9]: 1700 µM
Kd [10]: 820 µM

B2: VIC16-SDIEALGA (antibody)
heavy: QVQFQQSGAELAKLGASVKMSCKASGYTFTKYWMHWIKQRPGQGLEWIGYINPSTGYSENNQKFKGKAILTADKSSSTAYMQLSSLTSDDSAVYYCVRGYDSHYYVMDYWGQGTSVTVSSASTKGPSVFPLAPSSKSTSGGTAALGCLVKDYFPEPVTVSWNSGALTSGVHTFPAVLQSSGLYSLSSVVTVPSSSLGTQTYICNVNHKPSNTKVDKKVEPKSCDKTHTCPPCPAPELLAGPDVFLFPPKPKDTLMISRTPEVTCVVVDVSHEDPEVKFNWYVDGVEVHNAKTKPREEQYNSTYRVVSVLTVLHQDWLNGKEYKCKVSNKALPLPEEKTISKAKGQPREPQVYTLPPSREEMTKNQVSLTCLVKGFYPSDIAVEWESNGQPENNYKTTPPVLDSDGSFFLYSKLTVDKSRWQQGNVFSCSVMHEALHNHYTQKSLSLSPGK
light: B1 light
fold increase in KD compared to the VIC16 human IgG1 [11]: 18 fold
Kd [12]: 0.675 µM
fold-change relative to IgG1 [12]: 9 fold
Kd [13]: 1.6 µM
fold-change relative to IgG1 [13]: 19 fold
Kd [14]: 21 µM
fold-change relative to IgG1 [14]: 1.1 fold
Kd [15]: 3.2 µM
fold-change relative to IgG1 [15]: 7.8 fold
fold increase in binding [16]: 14 fold
fold decrease in binding compared to IgG1 [17]: 6 fold
fold increase in binding [18]: 4 fold
Kd [19]: 0.1 µM
fold-change relative to IgG1 [19]: 0.8 fold
Kd [20]: 0.001 µM
fold-change relative to IgG1 [20]: 235 fold
Kd [21]: 0.01 µM
fold-change relative to IgG1 [21]: 0.16 fold
Kd [22]: 0.13 µM
fold-change relative to IgG1 [22]: 114 fold

B3: mIgG1 VIC16 (antibody, V domains shown)
VH: QVQFQQSGAELAKLGASVKMSCKASGYTFTKYWMHWIKQRPGQGLEWIGYINPSTGYSENNQKFKGKAILTADKSSSTAYMQLSSLTSDDSAVYYCVRGYDSHYYVMDYWGQGTSVTVSS
VL: DIVITQDTASLAVSRGQRATISCRASESVEYYGTTLMQWYQQRPGQPPKLLIYGASNVESGVPARFSGSGSGTDFSLNIHPVEEDDIAMYFCQQSRKVPYTFGGGTKLEIK
IC50, neutralization of VSV pseudotyped to display EBOV GP [23]: 0.34 µg/mL
IC50 (read off the curve) [Cont.] [24]: ~0.3 µg/mL
